Where no end group is shown, it is not given here.
B1: Phage-2090 (peptide)
peptide: IVKWCVPEWMCEGT
modifications: cysteine pairing not given here; also: fused to phage pIII, pIII sequence and linker not given here
notes: Clonal phage of the Peptide-180 library
B2: Phage-2084 (peptide-180 library clone, SEQ ID NO: 2400) (peptide)
peptide: SEHWCVPSWMCYGF
notes: Tested as clonal phage supernatant; not shown: pIII filament protein of the bacteriophage to which the peptide is fused for display
B3: Phage-2067 (peptide)
peptide: PVKWCIPSWMCSVD
notes: tested as crude clonal phage supernatant
B4: Phage-2074 (peptide-180 library clone, SEQ ID NO: 2390) (peptide)
peptide: VGNWCKPAWMCEMM
notes: as for B2
B5: Phage-2077 (peptide-180 library clone, SEQ ID NO: 2393) (peptide)
peptide: AEKLCIPPWMCMLS
notes: as for B2
B6: Phage-2073 (peptide-180 library clone, SEQ ID NO: 2389) (peptide)
peptide: VAKMCIPSWMCAEQ
modifications: cysteine pairing not given here; also: fused to phage pIII, pIII sequence and linker not given here
notes: as for B2
B7: Phage-2085 (peptide-180 library clone, SEQ ID NO: 2401) (peptide)
peptide: ESKWCTPPWMCMTD
notes: as for B2
B8: Phage-2089 (peptide)
peptide: VEKWCIPTWMCQAM
modifications: cysteine pairing not given here; also: fused to phage pIII, pIII sequence and linker not given here
notes: as for B1
B9: Phage-2071 (peptide)
peptide: IGPWCIPPWMCDHR
notes: as for B3
B10: Phage-2078 (peptide-180 library clone, SEQ ID NO: 2394) (peptide)
peptide: IEKWCIPEWMCEYT
notes: as for B2
B11: Phage-2068 (peptide)
peptide: SEKWCIPDWMCQVW
notes: as for B3
B12: Phage-2086 (peptide-180 library clone, SEQ ID NO: 2402) (peptide)
peptide: VHQMCQPWWMCWET
notes: as for B2
B13: Phage-2091 (peptide)
peptide: ETRWCVPEWMCYGI
modifications: cysteine pairing not given here; also: fused to phage pIII, pIII sequence and linker not given here
notes: as for B1
B14: Phage-2087 (peptide)
peptide: FEKWCIPSWMCSGP
modifications: cysteine pairing not given here; also: fused to phage pIII, pIII sequence and linker not given here
notes: as for B1
B15: Phage-2081 (peptide-180 library clone, SEQ ID NO: 2397) (peptide)
peptide: QVNWCIPPWMCAGL
modifications: cysteine pairing not given here; also: fused to phage pIII, pIII sequence and linker not given here
notes: as for B2
B16: Phage-2082 (peptide-180 library clone, SEQ ID NO: 2398) (peptide)
peptide: PEKLCIPDWMCHWD
notes: as for B2
B17: Phage-2079 (peptide-180 library clone, SEQ ID NO: 2395) (peptide)
peptide: DWRLCIPEWMCERL
notes: as for B2
B18: Phage-2072 (peptide-180 library clone, SEQ ID NO: 2388) (peptide)
peptide: QGNWCKPAWMCSGF
modifications: cysteine pairing not given here; also: fused to phage pIII, pIII sequence and linker not given here
notes: as for B2
B19: Phage-2070 (peptide)
peptide: FEMWCTPSWMCDGF
notes: as for B3
B20: Phage-2066 (peptide)
peptide: VSIMCKPMWMCSGT
notes: as for B3
B21: Phage-2088 (peptide)
peptide: VEKWCIPQWMCAEM
modifications: cysteine pairing not given here; also: fused to phage pIII, pIII sequence and linker not given here
notes: as for B1
B22: Phage-2069 (peptide)
peptide: YDHWCTPMWMCHGM
notes: as for B3
B23: Phage-2080 (peptide-180 library clone, SEQ ID NO: 2396) (peptide)
peptide: WDNWCTPLWMCQGF
notes: as for B2
B24: Phage-2083 (peptide-180 library clone, SEQ ID NO: 2399) (peptide)
peptide: WSNWCTPRWVCKTI
notes: as for B2
B25: Phage-2075 (peptide-180 library clone, SEQ ID NO: 2391) (peptide)
peptide: ADKWCTPTWMCQWL
notes: as for B2
B26: Phage-2076 (peptide-180 library clone, SEQ ID NO: 2392) (peptide)
peptide: ADKWCIPEWMCEMN
notes: as for B2

What was measured:
[1] = biological target: T1, Anti-PSMA Fab (SEQ ID NOs: 19, 20); assay: phage binding ELISA on captured PSMA Fab, wells pre-incubated with PSMA antigen as competitor
T1 construct: In the phage ELISA the Fab was biotinylated and captured on neutravidin coated plates; also called 006 PSMA Fab
Protocol: (§1) Clonal phage were harvested as crude supernatants and screened via standard ELISAs. […] Prior to the addition of clonal phage. wells were incubated with blocking buffer and PSMA antigen or blocking buffer alone. Without washing or aspirating, clonal phage supernatants were then added to the wells and incubated for a short time. Wells were then washed followed by detection of bound phage using a horse radish conjugated anti-M13 antibody.

[2] = biological target: T1, Anti-PSMA Fab (SEQ ID NOs: 19, 20); assay: phage binding ELISA; biotinylated PSMA Fab captured on neutravidin plate, bound phage detected with anti-M13-HRP
Protocol: as §1

[3] = biological target: T2, Anti-PSMA Fab (SEQ ID NOs: 19, 20); assay: phage binding ELISA; PSMA Fab on plate pre-incubated with PSMA antigen as competitor, anti-M13 HRP detection;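 also: crude clonal phage supernatants added without washing to wells preincubated with PSMA in blocking buffer, compared with wells receiving blocking buffer only, then bound phage detected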
T2 construct: In the phage ELISA the PSMA Fab was biotinylated and captured on neutravidin coated plates; also called 006 PSMA Fab
Protocol: as §1

[4] = biological target: T2, Anti-PSMA Fab (SEQ ID NOs: 19, 20); assay: phage binding ELISA; biotinylated PSMA Fab on neutravidin plate, clonal phage supernatant, anti-M13 HRP detection;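 also: wells were preincubated with blocking buffer either containing PSMA antigen or without it before crude phage supernatant was added, briefly incubated, then washed prior to detection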
Protocol: as §1

[5] = biological target: T3, Anti-PSMA Fab (SEQ ID NOs: 19, 20); assay: phage ELISA on captured PSMA Fab, wells pre-incubated with the competitor PSMA antigen
T3 construct: Biotinylated PSMA Fab captured on neutravidin coated plates in the phage ELISA; also called 006 PSMA Fab
Protocol: as §1

[6] = biological target: T3, Anti-PSMA Fab (SEQ ID NOs: 19, 20); assay: phage ELISA; biotinylated PSMA Fab on neutravidin plate, bound phage detected with anti-M13-HRP;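 also: crude clonal phage supernatants added, without a wash, to wells pretreated with PSMA antigen in blocking buffer or with blocking buffer only, then briefly incubated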
Protocol: as §1

Row | Binder | Anti-PSMA Fab signal in the presence of PSMA [1] | Anti-PSMA Fab (SEQ ID NOs: 19, 20) signal [2] | Anti-PSMA Fab signal in the presence of PSMA [3] | Anti-PSMA Fab (SEQ ID NOs: 19, 20) signal [4] | also measured
1 | WGKLCIPEWMCTTQ (Clonal phage of the Peptide-180 library) [Phage-2095] | 0.0687 | 1.74 |  |  | 
2 | B1 | 0.0687 | 1.74 |  |  | 
3 | QGIMCIPEWMCSAI (Clonal phage of the Peptide-180 library) [Phage-2097] | 0.0664 | 1.73 |  |  | 
4 | B2 |  |  | 0.0957 | 1.75 | 
5 | B3 |  |  |  |  | Anti-PSMA Fab signal in the presence of PSMA (phage binding ELISA) [5]: 0.0738; Anti-PSMA Fab signal (phage binding ELISA) [6]: 1.76
6 | B4 |  |  | 0.0681 | 1.76 | 
7 | B5 |  |  | 0.101 | 1.76 | 
8 | B6 |  |  | 0.0548 | 1.76 | 
9 | B7 |  |  | 0.0945 | 1.75 | 
10 | PDHWCIPSWMCMSQ (Clonal phage of the Peptide-180 library) [Phage-2096] | 0.0974 | 1.74 |  |  | 
11 | FEKWCIPAWMCAAV (Clonal phage of the Peptide-180 library) [Phage-2092] | 0.112 | 1.74 |  |  | 
12 | B8 | 0.0844 | 1.74 |  |  | 
13 | B9 |  |  |  |  | Anti-PSMA Fab signal in the presence of PSMA (phage binding ELISA) [5]: 0.0893; Anti-PSMA Fab signal (phage binding ELISA) [6]: 1.76
14 | B10 |  |  | 0.0826 | 1.75 | 
15 | VVHWCIPSWMCTEN (Clonal phage of the Peptide-180 library) [Phage-2094] | 0.0941 | 1.74 |  |  | 
16 | B11 |  |  |  |  | Anti-PSMA Fab signal in the presence of PSMA (phage binding ELISA) [5]: 0.0929; Anti-PSMA Fab signal (phage binding ELISA) [6]: 1.76

Row | Binder | Anti-PSMA Fab signal in the presence of PSMA [1] | Anti-PSMA Fab (SEQ ID NOs: 19, 20) signal [2] | Anti-PSMA Fab signal in the presence of PSMA [3] | Anti-PSMA Fab (SEQ ID NOs: 19, 20) signal [4] | also measured
17 | B12 |  |  | 0.0749 | 1.75 | 
18 | B13 | 0.0943 | 1.74 |  |  | 
19 | B14 | 0.097 | 1.75 |  |  | 
20 | B15 |  |  | 0.0898 | 1.75 | 
21 | B16 |  |  | 0.0951 | 1.75 | 
22 | B17 |  |  | 0.0875 | 1.75 | 
23 | B18 |  |  | 0.0983 | 1.76 | 
24 | B19 |  |  |  |  | Anti-PSMA Fab signal in the presence of PSMA (phage binding ELISA) [5]: 0.0932; Anti-PSMA Fab signal (phage binding ELISA) [6]: 1.76
25 | B20 |  |  |  |  | Anti-PSMA Fab signal in the presence of PSMA (phage binding ELISA) [5]: 0.072; Anti-PSMA Fab signal (phage binding ELISA) [6]: 1.77
26 | VETWCTPRWMCEGF (Clonal phage of the Peptide-180 library) [Phage-2093] | 0.0881 | 1.74 |  |  | 
27 | B21 | 0.0696 | 1.74 |  |  | 
28 | B22 |  |  |  |  | Anti-PSMA Fab signal in the presence of PSMA (phage binding ELISA) [5]: 0.0688; Anti-PSMA Fab signal (phage binding ELISA) [6]: 1.76
29 | B23 |  |  | 0.0794 | 1.75 | 
30 | B24 |  |  | 0.0752 | 1.75 | 
31 | B25 |  |  | 0.0745 | 1.76 | 
32 | B26 |  |  | 0.0844 | 1.76 | 
